Measurements: patent publication US20160115500A1 (University of California, published 2016)
Residue numbers refer to the chain shown, from its start. Names may count otherwise. Blank lines part the entries; values can stand above or below the binder they belong to.

What was measured:
[1] = biological target: T1, GAL4 activation domain fusion (ACT) to HAB1 (UniProt Q9CAJ0 23-511, limits assumed); experiment: yeast two-hybrid, X-gal; lowest mandipropamid concentration giving signal
T1 construct: pACT-HAB1 fusion in yeast reporter strains; also called pACT-HAB1
T1 sequence (looked up): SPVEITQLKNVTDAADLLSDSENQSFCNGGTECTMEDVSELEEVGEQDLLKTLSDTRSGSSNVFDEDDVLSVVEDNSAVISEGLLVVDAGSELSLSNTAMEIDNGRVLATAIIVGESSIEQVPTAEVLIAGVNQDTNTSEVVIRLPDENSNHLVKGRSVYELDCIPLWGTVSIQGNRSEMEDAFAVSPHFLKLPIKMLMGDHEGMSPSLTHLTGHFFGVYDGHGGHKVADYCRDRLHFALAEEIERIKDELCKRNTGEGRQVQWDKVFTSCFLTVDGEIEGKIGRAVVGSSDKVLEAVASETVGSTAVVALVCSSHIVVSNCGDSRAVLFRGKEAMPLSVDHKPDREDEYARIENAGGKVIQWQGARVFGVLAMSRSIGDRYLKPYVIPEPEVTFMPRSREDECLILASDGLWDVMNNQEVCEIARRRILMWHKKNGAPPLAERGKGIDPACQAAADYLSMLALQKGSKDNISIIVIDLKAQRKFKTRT

[2] = biological target: T1, GAL4 activation domain fusion (ACT) to …; experiment: yeast two-hybrid, X-gal; lowest dichlobenil concentration giving signal
[3] = biological target: T1, GAL4 activation domain fusion (ACT) to …; experiment: yeast two-hybrid, X-gal; lowest fludioxonil concentration giving signal

B1: PYR1^K59R,F108A (receptor, not shown: small tags and cut ends)
chain: MPSELTPEERSELKNSIAEFHTYQLDPGSCSSLHAQRIHAPPELVWSIVRRFDKPQTYRHFIKSCSVEQNFEMRVGCTRDVIVISGLPANTSTERLDILDDERRVTGASIIGGEHRLTNYKSVTTVHRFEKENRIWTVVLESYVVDMPEGNSEDDTRMFADTVVKLNLQKLATVAEAMARNSGDGSGSQVT
notes: pBD-PYR1 fusion in yeast
Threshold [1]: 100 µM

B6: PYR1^K59R,F108A,S122G,A160V (receptor)
chain: B1 chain with S122G, A160V
notes: pBD-PYR1 fusion in yeast
Threshold [1]: 0.25 µM

B9: PYR1^K59R,F108C (receptor, not shown: small tags and cut ends)
chain: B1 chain with A108C
notes: pBD-PYR1 fusion in yeast
Threshold [1]: 100 µM

B11: PYR1^K59R,F108T (receptor, not shown: small tags and cut ends)
chain: B1 chain with A108T
notes: pBD-PYR1 fusion in yeast
Threshold [1]: 100 µM

B13: PYR1^K59R,F108A,S122G (receptor, not shown: small tags and cut ends)
chain: B1 chain with S122G
notes: pBD-PYR1 fusion in yeast; also called pBD-PYR1^K59R,F108A,S122G
Threshold [1]: 1 µM

B14: PYR1^K59R,F108G (receptor, not shown: small tags and cut ends)
chain: B1 chain with A108G
notes: pBD-PYR1 fusion in yeast
Threshold [1]: 100 µM

B16: PYR1^K59R,F108I (receptor, not shown: small tags and cut ends)
chain: B1 chain with A108I
notes: pBD-PYR1 fusion in yeast
Threshold [1]: 100 µM

B18: PYR1^K59R,F108Q,S122G (receptor, not shown: small tags and cut ends)
chain: B1 chain with A108Q, S122G
notes: pBD-PYR1 fusion in yeast
Threshold [1]: 10 µM

B19: PYR1^K59R,F108N (receptor, not shown: small tags and cut ends)
chain: B1 chain with A108N
notes: pBD-PYR1 fusion in yeast
Threshold [1]: 100 µM

B24: PYR1^K59R,F108A,S122G,V81I (receptor, not shown: small tags and cut ends)
chain: B1 chain with V81I, S122G
notes: pBD-PYR1 fusion in yeast
Threshold [1]: 0.25 µM

B25: PYR1^K59R,F108A,S122G,V164I (receptor)
chain: B1 chain with S122G, V164I
notes: pBD-PYR1 fusion in yeast
Threshold [1]: 0.25 µM

B31: PYR1^K59R,F108V (receptor, not shown: small tags and cut ends)
chain: B1 chain with A108V
notes: pBD-PYR1 fusion in yeast
Threshold [1]: 100 µM

B33: PYR1^K59R,F108I,S122G (receptor, not shown: small tags and cut ends)
chain: B1 chain with A108I, S122G
notes: pBD-PYR1 fusion in yeast
Threshold [1]: 10 µM

B34: PYR1^K59R,F108S (receptor)
chain: B1 chain with A108S
notes: pBD-PYR1 fusion in yeast
Threshold [1]: 100 µM

B35: PYR1^K59R,F108A,S122G,F159M (receptor)
chain: B1 chain with S122G, F159M
notes: pBD-PYR1 fusion in yeast
Threshold [1]: 0.25 µM

B36: PYR1^K59R,E94A,Y120A (receptor, not shown: small tags and cut ends)
chain: B1 chain with E94A, A108F, Y120A
notes: pBD-PYR1 fusion in yeast
Threshold [3]: 10 µM

B38: PYR1^K59R,F108E (receptor, not shown: small tags and cut ends)
chain: B1 chain with A108E
notes: pBD-PYR1 fusion in yeast
Threshold [1]: 100 µM | Threshold [2]: 100 µM

B40: PYR1^K59R,F108A,S122G,V81T (receptor, not shown: small tags and cut ends)
chain: B1 chain with V81T, S122G
notes: pBD-PYR1 fusion in yeast
Threshold [1]: 0.25 µM

B42: PYR1^K59R,N167G (receptor, not shown: small tags and cut ends)
chain: B1 chain with A108F, N167G
notes: pBD-PYR1 fusion in yeast
Threshold [2]: 100 µM

B43: PYR1^K59R,F108A,S122G,L87A (receptor)
chain: B1 chain with L87A, S122G
notes: pBD-PYR1 fusion in yeast
Threshold [1]: 0.25 µM

B44: PYR1^K59R,E94S (receptor, not shown: small tags and cut ends)
chain: B1 chain with E94S, A108F
notes: pBD-PYR1 fusion in yeast
Threshold [3]: 100 µM

B46: PYR1^K59R,F108A,S122G,F159V (receptor)
chain: B1 chain with S122G, F159V
notes: pBD-PYR1 fusion in yeast
Threshold [1]: 0.25 µM

B47: PYR1^K59R,F108A,S122G,V83L (receptor)
chain: B1 chain with V83L, S122G
notes: pBD-PYR1 fusion in yeast
Threshold [1]: 0.05 µM

B49: PYR1^K59R,F108A,S122G,V81C (receptor, not shown: small tags and cut ends)
chain: B1 chain with V81C, S122G
notes: pBD-PYR1 fusion in yeast
Threshold [1]: 0.25 µM

B50: PYR1^K59R,F108A,S122G,F159L (receptor)
chain: B1 chain with S122G, F159L
notes: pBD-PYR1 fusion in yeast
Threshold [1]: 0.05 µM

B51: PYR1^K59R,F108Q (receptor, not shown: small tags and cut ends)
chain: B1 chain with A108Q
notes: pBD-PYR1 fusion in yeast
Threshold [1]: 100 µM

B52: PYR1^K59R,E94A,N167C (receptor, not shown: small tags and cut ends)
chain: B1 chain with E94A, A108F, N167C
notes: pBD-PYR1 fusion in yeast
Threshold [3]: 10 µM

B54: PYR1^K59R,E94A (receptor, not shown: small tags and cut ends)
chain: B1 chain with E94A, A108F
notes: pBD-PYR1 fusion in yeast
Threshold [3]: 1 µM

Second part, the binder after the results:

Threshold [1]: 0.05 µM
B2: PYR1^K59R,V81I,F108A,S122G,A160V (receptor)
chain: B1 chain with V81I, S122G, A160V
notes: pBD-PYR1 fusion in yeast

Threshold [2]: 100 µM
B3: PYR1^K59R,V164Q (receptor, not shown: small tags and cut ends)
chain: B1 chain with A108F, V164Q
notes: pBD-PYR1 fusion in yeast

Threshold [2]: 100 µM
B4: PYR1^K59R,V164C (receptor, not shown: small tags and cut ends)
chain: B1 chain with A108F, V164C
notes: pBD-PYR1 fusion in yeast

Threshold [2]: 100 µM
B5: PYR1^K59R,N167T (receptor, not shown: small tags and cut ends)
chain: B1 chain with A108F, N167T
notes: pBD-PYR1 fusion in yeast

Threshold [2]: 100 µM
B7: PYR1^K59R,N167Q (receptor, not shown: small tags and cut ends)
chain: B1 chain with A108F, N167Q
notes: pBD-PYR1 fusion in yeast

Threshold [2]: 100 µM
B8: PYR1^K59R,V164S (receptor, not shown: small tags and cut ends)
chain: B1 chain with A108F, V164S
notes: pBD-PYR1 fusion in yeast

Threshold [1]: 0.002 µM
B10: PYR1^Y58H,K59R,V81I,F108A,S122G,F159L (receptor, not shown: small tags and cut ends)
chain: B1 chain with Y58H, V81I, S122G, F159L
notes: pBD-PYR1 fusion in yeast; also called PYR1^MANDI; pBD-PYR1^MANDI

Threshold [1]: 0.05 µM
B12: PYR1^Y58H,K59R,V81I,F108A,S122G (receptor)
chain: B1 chain with Y58H, V81I, S122G
notes: pBD-PYR1 fusion in yeast

Threshold [2]: 100 µM
B15: PYR1^K59R,V164T (receptor, not shown: small tags and cut ends)
chain: B1 chain with A108F, V164T
notes: pBD-PYR1 fusion in yeast

Threshold [2]: 100 µM
B17: PYR1^K59R,T162L (receptor, not shown: small tags and cut ends)
chain: B1 chain with A108F, T162L
notes: pBD-PYR1 fusion in yeast

Threshold [3]: 100 µM
B20: PYR1^K59R,N167V (receptor, not shown: small tags and cut ends)
chain: B1 chain with A108F, N167V
notes: pBD-PYR1 fusion in yeast

Threshold [2]: 100 µM
B21: PYR1^K59R,V164A (receptor, not shown: small tags and cut ends)
chain: B1 chain with A108F, V164A
notes: pBD-PYR1 fusion in yeast

Threshold [1]: 0.01 µM
B22: PYR1^Y58H,K59R,V81I,F108A,S122G,V164I (receptor, not shown: small tags and cut ends)
chain: B1 chain with Y58H, V81I, S122G, V164I
notes: pBD-PYR1 fusion in yeast

Threshold [3]: 100 µM
B23: PYR1^K59R,S92F (receptor, not shown: small tags and cut ends)
chain: B1 chain with S92F, A108F
notes: pBD-PYR1 fusion in yeast

Threshold [2]: 100 µM
B26: PYR1^K59R,V164E (receptor, not shown: small tags and cut ends)
chain: B1 chain with A108F, V164E
notes: pBD-PYR1 fusion in yeast

Threshold [1]: 0.01 µM
B27: PYR1^Y58H,K59R,V83L,F108A,S122G (receptor, not shown: small tags and cut ends)
chain: B1 chain with Y58H, V83L, S122G
notes: pBD-PYR1 fusion in yeast

Threshold [2]: 100 µM
B28: PYR1^K59R,V164H (receptor, not shown: small tags and cut ends)
chain: B1 chain with A108F, V164H
notes: pBD-PYR1 fusion in yeast

Threshold [2]: 100 µM
B29: PYR1^K59R,V164F (receptor, not shown: small tags and cut ends)
chain: B1 chain with A108F, V164F
notes: pBD-PYR1 fusion in yeast

Threshold [3]: 100 µM
B30: PYR1^K59R,V81Y (receptor, not shown: small tags and cut ends)
chain: B1 chain with V81Y, A108F
notes: pBD-PYR1 fusion in yeast

Threshold [2]: 100 µM
B32: PYR1^K59R,V164N (receptor, not shown: small tags and cut ends)
chain: B1 chain with A108F, V164N
notes: pBD-PYR1 fusion in yeast

Threshold [2]: 100 µM
B37: PYR1^K59R,V164L (receptor, not shown: small tags and cut ends)
chain: B1 chain with A108F, V164L
notes: pBD-PYR1 fusion in yeast

Threshold [1]: 0.25 µM
B39: PYR1^Y58H,K59R,F108A,S122G (receptor)
chain: B1 chain with Y58H, S122G
notes: pBD-PYR1 fusion in yeast

Threshold [2]: 100 µM
B41: PYR1^K59R,N167S (receptor, not shown: small tags and cut ends)
chain: B1 chain with A108F, N167S
notes: pBD-PYR1 fusion in yeast

Threshold [2]: 100 µM
B45: PYR1^K59R,V164M (receptor, not shown: small tags and cut ends)
chain: B1 chain with A108F, V164M
notes: pBD-PYR1 fusion in yeast

Threshold [1]: 100 µM
B48: PYR1^K59R,S122G (receptor, not shown: small tags and cut ends)
chain: B1 chain with A108F, S122G
notes: pBD-PYR1 fusion in yeast

Threshold [2]: 100 µM
B53: PYR1^K59R,V164G (receptor, not shown: small tags and cut ends)
chain: B1 chain with A108F, V164G
notes: pBD-PYR1 fusion in yeast

Threshold [3]: 100 µM
B55: PYR1^K59R,N167H (receptor, not shown: small tags and cut ends)
chain: B1 chain with A108F, N167H
notes: pBD-PYR1 fusion in yeast
